B1: RLuc-tagged bovine β-arrestin2 (natural protein, UniProt P32120 1-420, looked up)
chain: MGEKPGTRVFKKSSPNCKLTVYLGKRDFVDHLDKVDPVDGVVLVDPDYLKDRKVFVTLTCAFRYGREDLDVLGLSFRKDLFIANYQAFPPTPNPPRPPTRLQERLLRKLGQHAHPFFFTIPQNLPCSVTLQPGPEDTGKACGVDFEIRAFCAKSLEEKSHKRNSVRLVIRKVQFAPEKPGPQPSAETTRHFLMSDRSLHLEASLDKELYYHGEPLNVNVHVTNNSTKTVKKIKVSVRQYADICLFSTAQYKCPVAQVEQDDQVSPSSTFCKVYTITPLLSNNREKRGLALDGKLKHEDTNLASSTIVKEGANKEVLGILVSYRVKVKLVVSRGGDVSVELPFVLMHPKPHDHIALPRPQSAATHPPTLLPSAVPETDAPVDTNLIEFETNYATDDDIVFEDFARLRLKGLKDEDYDDQFC
B2: RLuc-tagged bovine β-arrestin1 (natural protein, UniProt P17870 1-418, looked up)
chain: MGDKGTRVFKKASPNGKLTVYLGKRDFVDHIDLVEPVDGVVLVDPEYLKERRVYVTLTCAFRYGREDLDVLGLTFRKDLFVANVQSFPPAPEDKKPLTRLQERLIKKLGEHAYPFTFEIPPNLPCSVTLQPGPEDTGKACGVDYEVKAFCAENLEEKIHKRNSVRLVIRKVQYAPERPGPQPTAETTRQFLMSDKPLHLEASLDKEIYYHGEPISVNVHVTNNTNKTVKKIKISVRQYADICLFNTAQYKCPVAMEEADDTVAPSSTFCKVYTLTPFLANNREKRGLALDGKLKHEDTNLASSTLLREGANREILGIIVSYKVKVKLVVSRGGLLGDLASSDVAVELPFTLMHPKPKEEPPHREVPEHETPVDTNLIELDTNDDDIVFEDFARQRLKGMKDDKEEEEDGTGSPRLNDR

Assays:
[1] = molecular target: T1, YFP-tagged human AT1R (angiotensin II type 1 receptor) (human, UniProt P30556 1-359); experiment: FRET or BRET
T1 sequence (looked up): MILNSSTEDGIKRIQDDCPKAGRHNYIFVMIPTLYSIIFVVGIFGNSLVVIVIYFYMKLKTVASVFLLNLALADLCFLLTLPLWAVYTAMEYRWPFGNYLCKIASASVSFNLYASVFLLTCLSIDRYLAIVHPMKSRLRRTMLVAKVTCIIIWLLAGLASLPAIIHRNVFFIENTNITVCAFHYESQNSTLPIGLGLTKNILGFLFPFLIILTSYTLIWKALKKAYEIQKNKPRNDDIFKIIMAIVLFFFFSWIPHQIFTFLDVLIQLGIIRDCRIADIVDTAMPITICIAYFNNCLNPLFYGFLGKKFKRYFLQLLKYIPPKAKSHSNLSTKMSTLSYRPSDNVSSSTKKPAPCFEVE

[2] = molecular target: T1, YFP-tagged human AT1R (angiotensin II …); experiment: FRET or BRET; remark: listed apart in the source

Row | Binder | relative change of BRET ratio, 2 min with Ang II [1] | relative change of BRET ratio, 5 min with Ang II [1] | relative change of BRET ratio, 10 min with Ang II [1] | relative change of BRET ratio, 20 min with Ang II [1] | relative change of BRET ratio, 30 min with Ang II [1] | EC50 of Ang II for the relative change of BRET ratio [2] [nM]
1 | B1 | 89.7 % (Ang II for 10 minutes set to 100%) | 102 % (Ang II for 10 minutes set to 100%) | 100 % (Ang II for 10 minutes set to 100%) | 112 % (Ang II for 10 minutes set to 100%) | 93.9 % (Ang II for 10 minutes set to 100%) | 6.3
2 | B2 | 89.1 % (Ang II for 10 minutes set to 100%) | 107 % (Ang II for 10 minutes set to 100%) | 100 % (Ang II for 10 minutes set to 100%) | 93.5 % (Ang II for 10 minutes set to 100%) | 95.8 % (Ang II for 10 minutes set to 100%) | 6.7

From publication PMC6475063 (Journal of the American Heart Association: Cardiovascular …, 2019)
